Measured values reported in the supplement of paper PMC12042874.
± gives the uncertainty stated by the source.

Assay: amyloid nucleation score (Sup35N fusion, yeast selection) (log enrichment); library NNK1; higher = more nucleation; inactive = no reads after selection
How it was run: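 Nucleation score is defined as the DiMSum log enrichment of output over input reads, with centring on the mode score of non-aggregating sequences. A minimum of 100 input reads was required for each sequence. Reads came from Illumina sequencing of plasmid inserts from psi-negative yeast expressing Sup35N fused to peptides of 20 random codons, induced with 100 μM copper sulfate for 24 hours and grown 7 days at 30°C on medium lacking adenine and uracil.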

Row | Substance | amyloid nucleation score
1 | NGLWVGHLVLDGIYSA | -0.564 ± 0.33
2 | NGNDDLSQTTEVKGYVGATL | -0.3 ± 0.37
3 | NGRENWSDETGSMFECALYS | 1.28 ± 0.44
4 | NGVPWG | -0.21 ± 0.95
5 | NHCCRVFMCFRIRGMYNAET | 4.05 ± 0.085
6 | NHFVALLSGIGVCSFWKKFG | -0.257 ± 1.5
7 | NHGCQIFRG | 0.667 ± 0.64
8 | NHSLMGVSTSFWI | -0.334 ± 0.45
9 | NHVYCVWMRMFMIYFNL | -0.17 ± 0.54
10 | NIEVYDFYNINSMYNV | 4.54 ± 0.079
11 | NIHGDGWSYVLNAIGSELD | 0.154 ± 0.43
12 | NIIIVNSSVG | 1.49 ± 0.37
13 | NIRKPNLNTMTDRLDWSVQS | -0.102 ± 0.47
14 | NISRAVHTRMGGYMSPTWLK | 0.833 ± 0.5
15 | NKKESGWY | -0.387 ± 0.97
16 | NKLTSCTVSHCL | -0.125 ± 0.44
17 | NKMGFFNTISGKRS | -0.556 ± 0.59
18 | NKQARVRETRVGLTCVGMLG | -0.321 ± 1.2
19 | NLALITWFESYCQTMRSAWI | -0.145 ± 0.26
20 | NLDKNGYRTCNLKISYHMSR | 1.28 ± 0.32
21 | NLDYDVESRVTEVWGVLSGC | 1.92 ± 0.56
22 | NLFIPILVYHDVSRYSLRMD | 6.483 ± 0.055

Row | Substance | amyloid nucleation score
23 | NLFVKFLNSRRCINFMTMFD | -0.01 ± 0.77
24 | NLINSIGIVEAWEILPASSR | 0.124 ± 1.2
25 | NLLGYVNVQVGAVYTGNNRL | 7.602 ± 0.066
26 | NLLHESCRVLYS | 0.398 ± 0.5
27 | NLLTWRD | 0.743 ± 0.64
28 | NLNTASQNIASLGLGALVLW | 0.073 ± 0.44
29 | NLQSCLVYKVSVGNLPLIYL | -0.45 ± 1.2
30 | NLSFLK | -0.313 ± 1.3
31 | NLSIRCLASFCPTGESWIRV | 0.971 ± 0.79
32 | NLVRLILRCSDRAKRFLRAL | -0.218 ± 0.36
33 | NLVRLVRIARCSMRSSVGTL | 1.23 ± 0.16
34 | NLWGSFTCYLFVIGNHWFGI | 6.96 ± 0.084
35 | NLYPDLGVLVGCHSDKWSNL | -0.115 ± 1.3
36 | NLYYWYGTVSIWFYNRWFGV | -0.021 ± 0.66
37 | NMLWSGITKFGGRGLKSMVV | -0.169 ± 0.88
38 | NMQLAPTGPNTVPISYDLFP | -1.46 ± 2.4
39 | NMRTNNVGVGLPSFMHNSSF | inactive
40 | NMRVFWSARRQALFQWRIL | 0.807 ± 0.71
41 | NMSESCNMDTLYGYDLRQWV | 0.088 ± 0.33
42 | NNHKLAFTVVTPIEDHFRMR | 0.674 ± 0.46
43 | NNLVFHGSKHNIKVRRMEMG | -1.14 ± 2.7
44 | NNPEINFYKVWAIKSYF | 2.83 ± 0.13

Row | Substance | amyloid nucleation score
45 | NNSHFQSNGNIWSNNSSPSA | inactive
46 | NNSKFMWQLSNWSWYTWHYI | -0.392 ± 0.83
47 | NNSLISTGVRMNHVVLR | -0.091 ± 0.9
48 | NNVRVDKACGEAMEDEKRVV | 0.672 ± 0.37
49 | NNVRYT | inactive
50 | NNYLCAEWFVTGVSTPLTTS | 0.735 ± 0.55
51 | NNYVYLSLSFPVGTVC | -0.377 ± 0.61
52 | NPAITGRFSYCT | 0.456 ± 1.2
53 | NPSFNPWNDHHYCTSGMCML | 0.562 ± 0.81
54 | NQDFLTLALKWRCECFHTKL | -0.247 ± 1.9
55 | NQDMVNMIHETFIVLARVVI | -0.059 ± 0.38
56 | NQDVTPVMRVVLDSSPTLSS | 2 ± 0.6
57 | NQIFVQCSVGKAWDRSKSVD | 4.12 ± 0.081
58 | NQTNFDVSLY | 4.64 ± 0.055
59 | NRAECSFVCTEYVNICK | -0.313 ± 0.43
60 | NRCVAGRWPNSFVVLGHTFN | -0.211 ± 0.71
61 | NRDYTVFKTRVFKSIFRIR | 0.505 ± 0.78
62 | NREIPQWIGFVY | 1.12 ± 0.65
63 | NRGSRTVLWDGNWAGTNTMP | -0.154 ± 0.47
64 | NRLCDK | 1.25 ± 0.35
65 | NRLVMLLLTLSNGSCEKVRD | 2.95 ± 0.094
66 | NRNISAIGACTGCTNMVFYS | 5.64 ± 0.11

Row | Substance | amyloid nucleation score
67 | NRPGEINKWSTLIDGVTRFS | 0.335 ± 0.41
68 | NRRVCEVR | -0.148 ± 1.1
69 | NRSGGTSAIDYHSWLVYHAG | -0.161 ± 0.28
70 | NSFVTVFLRWKYFVMSDMWP | -0.139 ± 0.25
71 | NSIYHYIVNTFYLNFMGWIE | 1.25 ± 0.79
72 | NSKCSLIQCTGPLVRERRSY | 0.058 ± 0.31
73 | NSLCYVVWVVVMTVNYYHHW | 0.557 ± 0.5
74 | NSMNLNG | inactive
75 | NSRSGLMNLVEKSLLYKMLY | -0.007 ± 0.48
76 | NSRSVVLMSVDFIILGYDKM | 3.56 ± 0.17
77 | NSSPNKCFAGSQGSFISFWD | -0.599 ± 0.62
78 | NSWVSINMCNVFGPHCMWTV | 7.21 ± 0.074
79 | NSYLSND | inactive
80 | NTAFSERTWLVRFKMVPRWK | 0.647 ± 0.83
81 | NTDYSQAGVCGSRCLNSAL | 1.54 ± 0.69
82 | NTISMFDMLQISKTSQHQFA | 0.387 ± 0.45
83 | NTLYYRSFRAIQLPGGENQN | -1.09 ± 1.9
84 | NTQNRSEVNQGVVGQVR | -0.378 ± 0.36
85 | NTVRNMSVNELFVSFDRGWF | 4.83 ± 0.063
86 | NVGVRLMCVSWSVHDQLA | 1.66 ± 0.35
